Reference: patent publication US20230399377A1
Read-outs that look alike come from different tables or passages of the source.

Legend:
[1] = molecular target: T1, human VEGF-B 167/189 (human) (UniProt P49765); experiment: SPR Biacore; Fc fusion captured on anti-human IgG (Fc) antibody chip, VEGF-B167/189 as analyte, 1:1 model
T1 sequence (looked up): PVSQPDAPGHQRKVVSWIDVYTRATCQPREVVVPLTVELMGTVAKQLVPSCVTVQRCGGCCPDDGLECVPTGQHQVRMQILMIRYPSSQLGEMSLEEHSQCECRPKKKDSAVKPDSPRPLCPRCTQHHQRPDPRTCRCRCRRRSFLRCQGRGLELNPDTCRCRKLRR

[2] = molecular target: recombinant human VEGF-A165 (human) (UniProt P15692)
Sequence of recombinant human VEGF-A165 (human) (P15692 other isoform, or with tags, fused parts or gaps limits assumed): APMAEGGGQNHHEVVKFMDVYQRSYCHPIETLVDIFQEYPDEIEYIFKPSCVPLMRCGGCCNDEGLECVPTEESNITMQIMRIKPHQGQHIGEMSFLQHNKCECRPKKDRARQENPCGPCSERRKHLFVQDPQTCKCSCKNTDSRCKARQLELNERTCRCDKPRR

[3] = molecular target: recombinant human VEGF-A165 (human) (UniProt P15692); remark: listed apart in the source
human PlGF (human) [4] = molecular target: T2, human PlGF (human) (UniProt P49763); experiment: SPR Biacore; Fc fusion captured on anti-human IgG (Fc) antibody chip, PlGF as analyte, 1:1 model
T2 sequence (looked up): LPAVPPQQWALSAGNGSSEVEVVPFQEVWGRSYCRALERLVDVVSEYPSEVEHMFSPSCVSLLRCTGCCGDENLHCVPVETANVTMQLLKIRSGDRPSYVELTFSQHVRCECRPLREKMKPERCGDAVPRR

[5] = molecular target: recombinant human VEGF-A165 (human) (UniProt P15692); experiment: SPR Biacore; Fc fusion captured on anti-human IgG (Fc) antibody chip, VEGF-A165 as analyte, 1:1 model
[6] = molecular target: recombinant human VEGF-A165 (human) (UniProt P15692); remark: listed apart in the source
human PlGF (human) [7] = molecular target: T2, human PlGF (human); experiment: SPR Biacore; Fc fusion captured on anti-human IgG (Fc) antibody chip, PlGF as analyte, 1:1 model; remark: listed apart in the source
[8] = molecular target: recombinant human VEGF-C (human) (UniProt P49767)
Sequence of recombinant human VEGF-C (human) (P49767 103-227 limits assumed): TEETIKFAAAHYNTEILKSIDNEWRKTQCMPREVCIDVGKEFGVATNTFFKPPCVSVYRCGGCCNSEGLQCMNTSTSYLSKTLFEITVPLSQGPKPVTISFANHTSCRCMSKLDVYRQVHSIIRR

[9] = molecular target: recombinant human VEGF-D (human) (UniProt O43915)
Sequence of recombinant human VEGF-D (human) (O43915 93-201 limits assumed): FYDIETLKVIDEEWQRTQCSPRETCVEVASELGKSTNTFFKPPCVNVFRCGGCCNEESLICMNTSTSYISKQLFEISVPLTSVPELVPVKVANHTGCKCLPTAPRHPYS

[10] = molecular target: recombinant human VEGF-C (human) (UniProt P49767); remark: listed apart in the source
[11] = molecular target: recombinant human VEGF-C (human) (UniProt P49767); remark: listed apart in the source

Sequence of aflibercept (Fc fusion) (chain): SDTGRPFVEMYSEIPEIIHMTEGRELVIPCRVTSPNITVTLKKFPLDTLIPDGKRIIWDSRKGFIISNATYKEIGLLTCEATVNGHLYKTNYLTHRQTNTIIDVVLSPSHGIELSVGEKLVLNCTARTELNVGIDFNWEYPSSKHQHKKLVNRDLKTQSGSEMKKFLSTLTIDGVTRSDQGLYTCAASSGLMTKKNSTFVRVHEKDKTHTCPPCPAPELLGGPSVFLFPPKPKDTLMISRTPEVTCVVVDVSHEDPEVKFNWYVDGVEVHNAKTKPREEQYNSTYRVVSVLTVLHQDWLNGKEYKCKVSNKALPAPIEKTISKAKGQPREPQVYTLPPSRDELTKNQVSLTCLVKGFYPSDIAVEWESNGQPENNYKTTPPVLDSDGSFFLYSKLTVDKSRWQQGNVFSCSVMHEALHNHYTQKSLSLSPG

Substance | Kd [1] | IC50, inhibition of VEGF-A165 (60 ng/mL) mediated VEGFR-2 signaling, VEGFR-2-NFAT-RE luciferase reporter cells [2] | IC50, inhibition of VEGF-A165 (60 ng/mL) mediated VEGFR-2 signaling, VEGFR-2-NFAT-RE luciferase reporter cells [3] | Kd (human PlGF (human) [4]) | Kd [5] | IC50, inhibition of VEGF-A165 (100 ng/mL on the sheet) mediated HLEC proliferation, alamarBlue reduction [6] | Kd (human PlGF (human) [7]) | IC50, inhibition of VEGF-C (25 ng/mL) mediated VEGFR-2 signaling, VEGFR-2-NFAT-RE luciferase reporter cells [8] | IC50, MIXED STIMULUS VEGF-C (25 ng/mL) + VEGF-D (150 ng/mL): inhibition of HLEC proliferation, alamarBlue reduction; one IC50 for the mixture [9] | IC50, MIXED STIMULUS VEGF-C (25 ng/mL) + VEGF-D (150 ng/mL): inhibition of HLEC proliferation, alamarBlue reduction; one IC50 for the mixture [10] | IC50, inhibition of VEGF-C (40 ng/mL on the sheet) mediated HLEC proliferation, alamarBlue reduction [11]
aflibercept (Fc fusion) | 0.0173 nM | 0.41 nM | 0.39 nM | 0.484 nM | 0.0336 nM | 1.18 nM | 0.48 nM |  |  |  | 
recombinant human VEGFR-3 containing 7 extracellular domains (from UniProt P35916 25-775) (receptor) |  |  |  |  |  |  |  | 9.3 pM | 1.26 nM | 1.26 nM | 1.47 nM
